The target in one assay is T1, Fractalkine (Homo sapiens, UniProt P78423).
T1 construct: purchased 300-31
T1 sequence (P78423 25-100 limits assumed): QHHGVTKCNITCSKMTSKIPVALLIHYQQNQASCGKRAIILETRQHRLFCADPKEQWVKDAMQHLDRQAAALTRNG
Put plainly: Micro-array analysis of chemokine binding peptides: Fractalkine. In a few lines:
(§1)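 Relative Cy3 fluorescence reflects how much recombinant phage (10^7 pfu/μl, 1 h, RT) bound chemokine printed at 25 or 50 μg/ml. Detection used anti-M13 monoclonal followed by Cy3 anti-mouse IgG.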

In the next assay the target is T2, BCA-1 (Homo sapiens, UniProt O43927).
T2 construct: purchased 300-47
T2 sequence (O43927 23-109): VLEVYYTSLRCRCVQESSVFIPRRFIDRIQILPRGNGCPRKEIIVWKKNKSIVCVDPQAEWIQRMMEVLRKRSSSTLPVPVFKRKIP
Put plainly: Micro-array analysis of chemokine binding peptides: BCA-1. In outline:
as §1

The next assay concerns the target T3, MCP-2 (Homo sapiens, UniProt P80075).
T3 construct: purchased 300-15
T3 sequence (P80075 24-99): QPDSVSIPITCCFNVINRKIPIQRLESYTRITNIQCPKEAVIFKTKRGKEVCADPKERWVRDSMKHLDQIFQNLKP
Kind of assay: Micro-array analysis of chemokine binding peptides: MCP-2. The following applies: limit = start of the upper 75% of that peptide's response range. In a few lines: as §1

The test system of the next assay is IL-8. Put plainly: Micro-array analysis of chemokine binding peptides: IL-8. The following applies: for binding to IL-8 with relatively high affinity (Relative Fluorescence Units): limit = start of the upper 75% of that peptide's response range. In outline: as §1
Chain of IL-8 (P10145 28-99 limits assumed): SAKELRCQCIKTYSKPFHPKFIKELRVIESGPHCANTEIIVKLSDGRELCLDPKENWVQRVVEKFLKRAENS
The target of a further assay is T4, Eotaxin 3 (Homo sapiens, UniProt Q9Y258).
T4 construct: purchased 300-48
T4 sequence (Q9Y258 24-94): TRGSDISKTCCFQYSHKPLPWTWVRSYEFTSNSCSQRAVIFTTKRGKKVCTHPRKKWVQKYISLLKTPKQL
Put plainly: Micro-array analysis of chemokine binding peptides: Eotaxin 3. The following applies: for binding to Eotaxin 3 with relatively high affinity (Relative Fluorescence Units): limit = start of the upper 75% of that peptide's response range. In a few lines:
as §1

The target of a further assay is T5, TECK (Homo sapiens, UniProt O15444).
T5 construct: purchased 300-45
T5 sequence (O15444 24-150): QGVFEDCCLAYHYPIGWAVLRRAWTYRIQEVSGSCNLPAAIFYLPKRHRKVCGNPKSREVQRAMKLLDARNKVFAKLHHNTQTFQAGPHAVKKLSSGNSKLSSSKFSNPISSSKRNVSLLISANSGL
Put plainly: Micro-array analysis of chemokine binding peptides: TECK. In a few lines:
as §1

A further assay concerns the target T6, MCP-4 (Homo sapiens, UniProt Q99616).
T6 construct: purchased 300-24
Put plainly: Micro-array analysis of chemokine binding peptides: MCP-4. The following applies: limit = start of the upper 75% of that peptide's response range. In a few lines: as §1

The next assay addresses T7, I-309 (Homo sapiens, UniProt P22362).
T7 construct: purchased 300-37
T7 sequence (P22362 24-96): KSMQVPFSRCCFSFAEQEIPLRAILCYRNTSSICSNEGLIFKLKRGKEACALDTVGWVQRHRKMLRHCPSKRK
Kind of assay: Micro-array analysis of chemokine binding peptides: I-309. The following applies: for binding to I-309 with relatively high affinity (Relative Fluorescence Units): limit = start of the upper 75% of that peptide's response range. In outline: as §1

In a further assay the target is T8, I-TAC (Homo sapiens, UniProt O14625).
T8 construct: purchased 300-46
T8 sequence (O14625 22-94): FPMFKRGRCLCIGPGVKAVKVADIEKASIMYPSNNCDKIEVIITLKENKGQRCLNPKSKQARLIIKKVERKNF
Put plainly: Micro-array analysis of chemokine binding peptides: I-TAC. The following applies: for binding to I-TAC with relatively high affinity (Relative Fluorescence Units): limit = start of the upper 75% of that peptide's response range. In outline:
as §1

A further assay has as its system SDF1. Kind of assay: Micro-array analysis of chemokine binding peptides: SDF1 (isoform not given). How it is done:
(1) Printing: Chemokine (CK) solution (in water) was serially diluted with Print Reagent (GenTel BioSurfaces USA) to final concentrations of 50 μg and 25 μg/ml. BSA/BSA-Biotin control solutions (in water) were diluted with Print Reagent to 100 μg/ml. Amplified stock of M13 phage control (M13KEgIII Cloning Vector, New England Biolabs, Cat.No.E8101S) was stored in Tris Buffered Saline (TBS; pH7.5, 4° C.) and diluted with Print Reagent to the working titre (10^8 pfu/μl). An automated spotting robot (16 pin print tool, 0.4 mm head; BioRobotics, UK) was used to print the CK/BSA control/M13 control, 5 repeats per sample (CK 25 μg/ml and 50 μg/ml; BSA 100 μg/ml; M13 20 μl), on PATH Protein Microarray Slides (GenTel, Prod.No. 2-1005/-1025) at […], and 50-70% relative humidity. Printed micro-array slides were stored at Room Temperature (RT) or 4° C. for at least 24 h before use.
(2) Blocking: Block Buffer (500 μl/partition; PATHblock, GenTel, Prod.No. 2-1014) was applied to the slide for 1 hour at room temp (RT). After removal of Block Buffer, the slide was air dried for 25 minutes;
(3) Phage Presented Peptide Binding: Amplified recombinant phage stock was stored in TBS and diluted with Wash Buffer to working titer (10^7 pfu/μl). Recombinant phage suspension (300 μl) was applied per partition and incubated at RT for 1 hour with gentle agitation.
(4) First Washing: The slides were washed twice with Wash Buffer 300 μl/partition).
(5) Primary Antibody (Ab) Labeling: The slides were incubated with the Primary Ab (1 mg/ml diluted ×2500 (Wash Reagent), 300 μl; Mouse Anti-M13 monoclonal Ab; Amersham Biosciences, UK; Product Code 27-9420-01) for 45 minutes at RT.
(6) Second Washing: The slides were washed twice with Wash Buffer (300 μl/partition).
(7) Secondary Ab Labeling: The slides were incubated with Secondary Ab (1.5 mg/ml diluted ×5000 (Wash Reagent), 300 μl; Cy3-conjugated AffiniPure Goat Anti-Mouse IgG; Jackson ImmunoReserch Labs, USA; Product Code 115-165-062).
(8) Third Washing: The slides were washed twice with Wash Buffer (300 μl/partition).
(9) Rinse: the slides were rinsed twice with Rinse Buffer (PATHrinse, GenTel, Prod.No. 2-1018) then dried well.
(10) Scanning: The peptide-bound, labeled slide was scanned (Laser Intensity 80%, Gain 80%, Resolution 10 μm) with a ScanArray Life Scanner (Packard BioChip Technologies, USA).
(11) Analysis: Quantitative analysis of micro-array was performed by the SpotReader program of Niles Scientific (USA) and presented as Relative Fluorescence (RF) as a function of CK concentration. Micro-array readout (Cy3 fluorescence) was quantified to determine the relative binding affinities of a CBP for the CKs and by inference, the specificity of the CBP for binding to a CK.

For another assay, the target named is T9, SDF1-β (Homo sapiens, UniProt P48061).
T9 construct: purchased 300-28b
T9 sequence (P48061 22-93): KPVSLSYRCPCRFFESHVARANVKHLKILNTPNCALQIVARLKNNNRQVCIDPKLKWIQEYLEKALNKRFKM
Put plainly: Micro-array analysis of chemokine binding peptides: SDF1-β. In a few lines: as §1

For a further assay, the target named is T10, Lymphotactin (Homo sapiens, UniProt P47992).
T10 construct: purchased 300-20
T10 sequence (P47992 22-114): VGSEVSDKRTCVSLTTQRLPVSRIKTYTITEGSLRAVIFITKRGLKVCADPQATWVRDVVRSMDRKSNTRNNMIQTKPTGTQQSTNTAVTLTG
Kind of assay: Micro-array analysis of chemokine binding peptides: Lymphotactin. In outline: as §1

A further assay addresses T11, Eotaxin (Homo sapiens, UniProt P51671).
T11 construct: purchased 300-21
Put plainly: Micro-array analysis of chemokine binding peptides: Eotaxin. In a few lines: as §1

Another assay has as its target T12, Mig (Homo sapiens, UniProt Q07325).
T12 construct: purchased 300-26
T12 sequence (Q07325 23-125): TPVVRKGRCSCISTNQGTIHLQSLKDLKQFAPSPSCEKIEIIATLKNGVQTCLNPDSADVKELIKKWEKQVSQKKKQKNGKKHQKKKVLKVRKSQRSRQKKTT
Kind of assay: Micro-array analysis of chemokine binding peptides: Mig. In outline:
as §1

[1] abbreviates: limit = start of the upper 75% of that peptide's response range.

Where two headings read alike, the source gives them in different places.

T6 sequence (Q99616 17-98): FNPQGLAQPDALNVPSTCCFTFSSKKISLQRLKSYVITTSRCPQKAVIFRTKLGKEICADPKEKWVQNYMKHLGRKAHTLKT
T11 sequence (P51671 24-97): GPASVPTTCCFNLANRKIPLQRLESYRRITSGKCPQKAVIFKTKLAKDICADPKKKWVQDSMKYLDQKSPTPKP
Chain of SDF1 (P48061 22-89 limits assumed): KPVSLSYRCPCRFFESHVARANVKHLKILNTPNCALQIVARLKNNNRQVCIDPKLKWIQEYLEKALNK

With WVFGNAMCK [P8], the “binding to Fractalkine, stated in words” value with Fractalkine is “bound specifically and differentially”. Moreover, the “binding to Fractalkine with relatively high affinity (Relative Fluorescence Units)” value in the assay with Fractalkine (setting [1]) is > 25,000 RFU. For the same sequence, the “binding to BCA-1 with relatively high affinity (Relative Fluorescence Units)” value with BCA-1 (setting [1]) is on record as > 25,000 RFU. In addition, the “binding to MCP-2 with relatively high affinity (Relative Fluorescence Units)” value in the assay with MCP-2 is > 25,000 RFU. In the assay with IL-8, the “binding to IL-8, stated in words” value is “bound specifically and differentially”; the “binding to IL-8 with relatively high affinity (Relative Fluorescence Units)” value is > 25,000 RFU. Besides, the “binding to Eotaxin 3 with relatively high affinity (Relative Fluorescence Units)” value with Eotaxin 3 is > 25,000 RFU. Further, the “binding to TECK with relatively high affinity (Relative Fluorescence Units)” value with TECK (setting [1]) was > 25,000 RFU. Moreover, the “binding to MCP-4 with relatively high affinity (Relative Fluorescence Units)” value with MCP-4 was > 25,000 RFU. In addition, the “binding to I-309 with relatively high affinity (Relative Fluorescence Units)” value with I-309 is recorded as > 25,000 RFU. In the assay with I-TAC, the “binding to I-TAC with relatively high affinity (Relative Fluorescence Units)” value was > 25,000 RFU. In addition, the “binding to SDF1 (isoform not given), stated in words” value in the assay with SDF1 is “bound specifically and differentially”. The “binding to SDF1-β with relatively high affinity (Relative Fluorescence Units)” value with SDF1-β (setting [1]) is given as > 25,000 RFU.

For WVFGAAMCK [Ph-p8.8], the “binding to Lymphotactin, stated in words” value in the assay with Lymphotactin was “bound”. For the same sequence, the “binding to Fractalkine, stated in words” value with Fractalkine was “bound”; with Fractalkine (listed as P8.8) it was “bound specifically and differentially”. Also, in the assay with BCA-1, the “binding to BCA-1, stated in words” value was “bound”. Also, the “binding to MCP-2 with relatively high affinity (Relative Fluorescence Units)” value with MCP-2 is given as > 15,000 RFU. The “binding to IL-8, stated in words” value with IL-8 is “bound”; in the assay with IL-8 (listed as P8.8), “bound specifically and differentially”. In addition, the “binding to Eotaxin, stated in words” value with Eotaxin was “bound”. Also, in the assay with Eotaxin 3, the “binding to Eotaxin 3, stated in words” value is “bound”. In addition, the “binding to TECK, stated in words” value with TECK is reported as “bound”. Moreover, the “binding to MCP-4 with relatively high affinity (Relative Fluorescence Units)” value with MCP-4 is on record as > 15,000 RFU. Moreover, in the assay with I-309, the “binding to I-309, stated in words” value was “bound”. In addition, the “binding to I-TAC, stated in words” value in the assay with I-TAC was “bound”. Besides, the “binding to SDF1 (isoform not given), stated in words” value in the assay with SDF1 is “bound specifically and differentially”. For the same sequence, the “binding to SDF1-β, stated in words” value with SDF1-β is recorded as “bound”. Also, in the assay with Mig, the “binding to Mig, stated in words” value is reported as “bound”.

As to DYDYGAPC [Ph-p30], the “binding to Lymphotactin, stated in words” value in the assay with Lymphotactin is on record as “bound”. In addition, in the assay with Fractalkine, the “binding to Fractalkine, stated in words” value is “bound”. Moreover, in the assay with BCA-1, the “binding to BCA-1, stated in words” value is “bound”. In the assay with MCP-2, the “binding to MCP-2 with relatively high affinity (Relative Fluorescence Units)” value is given as > 15,000 RFU. The “binding to IL-8 with relatively high affinity (Relative Fluorescence Units)” value in the assay on IL-8 is > 15,000 RFU. In addition, the “binding to Eotaxin with relatively high affinity (Relative Fluorescence Units)” value with Eotaxin (setting [1]) is on record as > 15,000 RFU. In addition, the “binding to Eotaxin 3 with relatively high affinity (Relative Fluorescence Units)” value with Eotaxin 3 is on record as > 15,000 RFU. Moreover, in the assay with TECK, the “binding to TECK, stated in words” value is “bound”. In addition, in the assay with MCP-4, the “binding to MCP-4 with relatively high affinity (Relative Fluorescence Units)” value is reported as > 15,000 RFU. The “binding to I-309 with relatively high affinity (Relative Fluorescence Units)” value in the assay with I-309 is given as > 15,000 RFU. The “binding to I-TAC with relatively high affinity (Relative Fluorescence Units)” value with I-TAC is > 15,000 RFU. For the same sequence, the “binding to SDF1-β, stated in words” value with SDF1-β was “bound”. In addition, in the assay with Mig (setting [1]), the “binding to Mig with relatively high affinity (Relative Fluorescence Units)” value is on record as > 15,000 RFU.

The values above are taken from patent US12072338B2, “Pharmaceutical peptides for the treatment of inflammatory diseases” (PROTAGONISTS LTD., priority 2007, dated 2024).
